{"source": "paper PMC12416549", "about": "(2024)", "binders": {"B1": {"name": "A91V (designed binder)", "chain": "MTLQELLREEALRRAEAEAFRYALELLAEKFPEQKEYLLDLAEEIESQIRSLSGVDVEDVRKFLDKEWAWVKELLAEHPAELAEVEAARAVRLAELRAEVEAKVAA"}, "B2": {"name": "A15F (designed binder)", "chain": "MTLQELLREEALRRFEAEAFRYALELLAEKFPEQKEYLLDLAEEIESQIRSLSGVDVEDVRKFLDKEWAWVKELLAEHPAELAEVEAARAARLAELRAEVEAKVAA"}, "B3": {"name": "R8T (designed binder)", "chain": "MTLQELLTEEALRRAEAEAFRYALELLAEKFPEQKEYLLDLAEEIESQIRSLSGVDVEDVRKFLDKEWAWVKELLAEHPAELAEVEAARAARLAELRAEVEAKVAA"}, "B4": {"name": "F63K (designed binder)", "chain": "MTLQELLREEALRRAEAEAFRYALELLAEKFPEQKEYLLDLAEEIESQIRSLSGVDVEDVRKKLDKEWAWVKELLAEHPAELAEVEAARAARLAELRAEVEAKVAA"}, "B5": {"name": "A87H (designed binder)", "chain": "MTLQELLREEALRRAEAEAFRYALELLAEKFPEQKEYLLDLAEEIESQIRSLSGVDVEDVRKFLDKEWAWVKELLAEHPAELAEVEHARAARLAELRAEVEAKVAA"}, "B6": {"name": "L52N (designed binder)", "chain": "MTLQELLREEALRRAEAEAFRYALELLAEKFPEQKEYLLDLAEEIESQIRSNSGVDVEDVRKFLDKEWAWVKELLAEHPAELAEVEAARAARLAELRAEVEAKVAA"}, "B7": {"name": "A80S (designed binder)", "chain": "MTLQELLREEALRRAEAEAFRYALELLAEKFPEQKEYLLDLAEEIESQIRSLSGVDVEDVRKFLDKEWAWVKELLAEHPSELAEVEAARAARLAELRAEVEAKVAA"}, "B8": {"name": "E25G (designed binder)", "chain": "MTLQELLREEALRRAEAEAFRYALGLLAEKFPEQKEYLLDLAEEIESQIRSLSGVDVEDVRKFLDKEWAWVKELLAEHPAELAEVEAARAARLAELRAEVEAKVAA"}, "B9": {"name": "I49H (designed binder)", "chain": "MTLQELLREEALRRAEAEAFRYALELLAEKFPEQKEYLLDLAEEIESQHRSLSGVDVEDVRKFLDKEWAWVKELLAEHPAELAEVEAARAARLAELRAEVEAKVAA"}, "B10": {"name": "K66L (designed binder)", "chain": "MTLQELLREEALRRAEAEAFRYALELLAEKFPEQKEYLLDLAEEIESQIRSLSGVDVEDVRKFLDLEWAWVKELLAEHPAELAEVEAARAARLAELRAEVEAKVAA"}, "B11": {"name": "I45W (designed binder)", "chain": "MTLQELLREEALRRAEAEAFRYALELLAEKFPEQKEYLLDLAEEWESQIRSLSGVDVEDVRKFLDKEWAWVKELLAEHPAELAEVEAARAARLAELRAEVEAKVAA"}, "B12": {"name": "L38H (designed binder)", "chain": "MTLQELLREEALRRAEAEAFRYALELLAEKFPEQKEYHLDLAEEIESQIRSLSGVDVEDVRKFLDKEWAWVKELLAEHPAELAEVEAARAARLAELRAEVEAKVAA"}, "B13": {"name": "F20S (designed binder)", "chain": "MTLQELLREEALRRAEAEASRYALELLAEKFPEQKEYLLDLAEEIESQIRSLSGVDVEDVRKFLDKEWAWVKELLAEHPAELAEVEAARAARLAELRAEVEAKVAA"}, "B14": {"name": "L93P (designed binder)", "chain": "MTLQELLREEALRRAEAEAFRYALELLAEKFPEQKEYLLDLAEEIESQIRSLSGVDVEDVRKFLDKEWAWVKELLAEHPAELAEVEAARAARPAELRAEVEAKVAA"}, "B15": {"name": "E43Q (designed binder)", "chain": "MTLQELLREEALRRAEAEAFRYALELLAEKFPEQKEYLLDLAQEIESQIRSLSGVDVEDVRKFLDKEWAWVKELLAEHPAELAEVEAARAARLAELRAEVEAKVAA"}, "B16": {"name": "G54H (designed binder)", "chain": "MTLQELLREEALRRAEAEAFRYALELLAEKFPEQKEYLLDLAEEIESQIRSLSHVDVEDVRKFLDKEWAWVKELLAEHPAELAEVEAARAARLAELRAEVEAKVAA"}, "B17": {"name": "R21Y (designed binder)", "chain": "MTLQELLREEALRRAEAEAFYYALELLAEKFPEQKEYLLDLAEEIESQIRSLSGVDVEDVRKFLDKEWAWVKELLAEHPAELAEVEAARAARLAELRAEVEAKVAA"}, "B18": {"name": "Y22A (designed binder)", "chain": "MTLQELLREEALRRAEAEAFRAALELLAEKFPEQKEYLLDLAEEIESQIRSLSGVDVEDVRKFLDKEWAWVKELLAEHPAELAEVEAARAARLAELRAEVEAKVAA"}, "B19": {"name": "K30V (designed binder)", "chain": "MTLQELLREEALRRAEAEAFRYALELLAEVFPEQKEYLLDLAEEIESQIRSLSGVDVEDVRKFLDKEWAWVKELLAEHPAELAEVEAARAARLAELRAEVEAKVAA"}, "B20": {"name": "E36L (designed binder)", "chain": "MTLQELLREEALRRAEAEAFRYALELLAEKFPEQKLYLLDLAEEIESQIRSLSGVDVEDVRKFLDKEWAWVKELLAEHPAELAEVEAARAARLAELRAEVEAKVAA"}, "B21": {"name": "S51H (designed binder)", "chain": "MTLQELLREEALRRAEAEAFRYALELLAEKFPEQKEYLLDLAEEIESQIRHLSGVDVEDVRKFLDKEWAWVKELLAEHPAELAEVEAARAARLAELRAEVEAKVAA"}, "B22": {"name": "L74R (designed binder)", "chain": "MTLQELLREEALRRAEAEAFRYALELLAEKFPEQKEYLLDLAEEIESQIRSLSGVDVEDVRKFLDKEWAWVKERLAEHPAELAEVEAARAARLAELRAEVEAKVAA"}, "B23": {"name": "E9W (designed binder)", "chain": "MTLQELLRWEALRRAEAEAFRYALELLAEKFPEQKEYLLDLAEEIESQIRSLSGVDVEDVRKFLDKEWAWVKELLAEHPAELAEVEAARAARLAELRAEVEAKVAA"}, "B24": {"name": "L12T (designed binder)", "chain": "MTLQELLREEATRRAEAEAFRYALELLAEKFPEQKEYLLDLAEEIESQIRSLSGVDVEDVRKFLDKEWAWVKELLAEHPAELAEVEAARAARLAELRAEVEAKVAA"}, "B25": {"name": "E29R (designed binder)", "chain": "MTLQELLREEALRRAEAEAFRYALELLARKFPEQKEYLLDLAEEIESQIRSLSGVDVEDVRKFLDKEWAWVKELLAEHPAELAEVEAARAARLAELRAEVEAKVAA"}, "B26": {"name": "L27R (designed binder)", "chain": "MTLQELLREEALRRAEAEAFRYALELRAEKFPEQKEYLLDLAEEIESQIRSLSGVDVEDVRKFLDKEWAWVKELLAEHPAELAEVEAARAARLAELRAEVEAKVAA"}}, "biological_target": "T1, TNFR1 (Homo sapiens, UniProt P19438)", "T1 chain": "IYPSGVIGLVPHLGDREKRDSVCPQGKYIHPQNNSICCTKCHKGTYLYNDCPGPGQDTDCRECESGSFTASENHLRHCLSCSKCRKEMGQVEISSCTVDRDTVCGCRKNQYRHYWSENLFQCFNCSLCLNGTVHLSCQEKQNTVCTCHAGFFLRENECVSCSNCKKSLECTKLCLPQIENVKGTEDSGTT", "experiment": "yeast display SC50"}
{"binder": "B1", "values": [{"measurement": "apparent Kd (screen)", "value": 0.539, "unit": "nM"}]}
{"binder": "B2", "values": [{"measurement": "apparent Kd (screen)", "value": 0.653, "unit": "nM"}]}
{"binder": "B3", "values": [{"measurement": "apparent Kd (screen)", "value": 0.79, "unit": "nM"}]}
{"binder": "B4", "values": [{"measurement": "apparent Kd (screen)", "value": 5.31, "unit": "nM"}]}
{"binder": "B5", "values": [{"measurement": "apparent Kd (screen)", "value": 0.49, "unit": "nM"}]}
{"binder": "B6", "values": [{"measurement": "apparent Kd (screen)", "value": 2.73, "unit": "nM"}]}
{"binder": "B7", "values": [{"measurement": "apparent Kd (screen)", "value": 0.869, "unit": "nM"}]}
{"binder": "B8", "values": [{"measurement": "apparent Kd (screen)", "value": 0.49, "unit": "nM"}]}
{"binder": "B9", "values": [{"measurement": "apparent Kd (screen)", "value": 0.304, "unit": "nM"}]}
{"binder": "B10", "values": [{"measurement": "apparent Kd (screen)", "value": 0.49, "unit": "nM"}]}
{"binder": "B11", "values": [{"measurement": "apparent Kd (screen)", "value": 0.718, "unit": "nM"}]}
{"binder": "B12", "values": [{"measurement": "apparent Kd (screen)", "value": 0.79, "unit": "nM"}]}
{"binder": "B13", "values": [{"measurement": "apparent Kd (screen)", "value": 1.05, "unit": "nM"}]}
{"binder": "B14", "values": [{"measurement": "apparent Kd (screen)", "value": 1.69, "unit": "nM"}]}
{"binder": "B15", "values": [{"measurement": "apparent Kd (screen)", "value": 0.956, "unit": "nM"}]}
{"binder": "B16", "values": [{"measurement": "apparent Kd (screen)", "value": 11.4, "unit": "nM"}]}
{"binder": "B17", "values": [{"measurement": "apparent Kd (screen)", "value": 0.49, "unit": "nM"}]}
{"binder": "B18", "values": [{"measurement": "apparent Kd (screen)", "value": 0.79, "unit": "nM"}]}
{"binder": "B19", "values": [{"measurement": "apparent Kd (screen)", "value": 0.446, "unit": "nM"}]}
{"binder": "B20", "values": [{"measurement": "apparent Kd (screen)", "value": 0.539, "unit": "nM"}]}
{"binder": "B21", "values": [{"measurement": "apparent Kd (screen)", "value": 0.304, "unit": "nM"}]}
{"binder": "B22", "values": [{"measurement": "apparent Kd (screen)", "value": 12.5, "unit": "nM"}]}
{"binder": "B23", "values": [{"measurement": "apparent Kd (screen)", "value": 0.405, "unit": "nM"}]}
{"binder": "B24", "values": [{"measurement": "apparent Kd (screen)", "value": 0.718, "unit": "nM"}]}
{"binder": "B25", "values": [{"measurement": "apparent Kd (screen)", "value": 0.49, "unit": "nM"}]}
{"binder": "B26", "values": [{"measurement": "apparent Kd (screen)", "value": 0.49, "unit": "nM"}]}
